# Starred links: 1 amine or outer side, 2 acyl side, 3 side chain; linkers in the order of their positions; H or OH if unused. Non-standard residues stand in square brackets, D forms with d. Groups on a side chain read outwards from the residue. No end group written: not given here. *: point of attachment. C18 diacid = O=C(O)CCCCCCCCCCCCCCCCC(=O)*; γGlu = O=C(O)[C@H](CCC(=O)[*:2])N[*:1]; AEEA = NCCOCCOCC(=O)O; Aib = CC(C)(N)C(=O)O
# T1: CRF1R receptor (anti-target) (UniProt P34998 24-415, limits assumed)
# T1 sequence (looked up): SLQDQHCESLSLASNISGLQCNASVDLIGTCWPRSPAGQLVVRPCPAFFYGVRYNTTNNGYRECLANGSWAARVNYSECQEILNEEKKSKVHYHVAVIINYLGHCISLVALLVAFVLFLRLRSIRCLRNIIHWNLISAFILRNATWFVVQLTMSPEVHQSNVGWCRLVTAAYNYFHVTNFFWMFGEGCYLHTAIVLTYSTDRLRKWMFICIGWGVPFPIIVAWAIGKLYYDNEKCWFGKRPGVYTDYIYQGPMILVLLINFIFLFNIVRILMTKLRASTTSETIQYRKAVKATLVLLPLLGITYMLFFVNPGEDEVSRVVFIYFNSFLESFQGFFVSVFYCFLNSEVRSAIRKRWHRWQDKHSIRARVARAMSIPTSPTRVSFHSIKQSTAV
# B1: peptide of SEQ ID NO: 119 (peptide)
# peptide: IVLSLDVPIKLK([AEEA-AEEA-γGlu-C18 diacid])QILLKQERQKK[Aib]RQKAEKNKQILAQV-NH2
# modifications: N-terminus assumed
# SMILES: CC[C@H](C)[C@H](N)C(=O)N[C@H](C(=O)N[C@@H](CC(C)C)C(=O)N[C@@H](CO)C(=O)N[C@@H](CC(C)C)C(=O)N[C@@H](CC(=O)O)C(=O)N[C@H](C(=O)N1CCC[C@H]1C(=O)N[C@H](C(=O)N[C@@H](CCCCN)C(=O)N[C@@H](CC(C)C)C(=O)N[C@@H](CCCCNC(=O)COCCOCCNC(=O)COCCOCCNC(=O)CC[C@H](NC(=O)CCCCCCCCCCCCCCCCC(=O)O)C(=O)O)C(=O)N[C@@H](CCC(N)=O)C(=O)N[C@H](C(=O)N[C@@H](CC(C)C)C(=O)N[C@@H](CC(C)C)C(=O)N[C@@H](CCCCN)C(=O)N[C@@H](CCC(N)=O)C(=O)N[C@@H](CCC(=O)O)C(=O)N[C@@H](CCCNC(=N)N)C(=O)N[C@@H](CCC(N)=O)C(=O)N[C@@H](CCCCN)C(=O)N[C@@H](CCCCN)C(=O)NC(C)(C)C(=O)N[C@@H](CCCNC(=N)N)C(=O)N[C@@H](CCC(N)=O)C(=O)N[C@@H](CCCCN)C(=O)N[C@@H](C)C(=O)N[C@@H](CCC(=O)O)C(=O)N[C@@H](CCCCN)C(=O)N[C@@H](CC(N)=O)C(=O)N[C@@H](CCCCN)C(=O)N[C@@H](CCC(N)=O)C(=O)N[C@H](C(=O)N[C@@H](CC(C)C)C(=O)N[C@@H](C)C(=O)N[C@@H](CCC(N)=O)C(=O)N[C@H](C(N)=O)C(C)C)[C@@H](C)CC)[C@@H](C)CC)[C@@H](C)CC)C(C)C)C(C)C
# B2: peptide of SEQ ID NO: 121 (peptide)
# peptide: IVLSLDVPIKLK([AEEA-AEEA-γGlu-C18 diacid])QILLKQERQKKQREKAEKNKQILAQV-NH2
# modifications: N-terminus assumed
# SMILES: CC[C@H](C)[C@H](N)C(=O)N[C@H](C(=O)N[C@@H](CC(C)C)C(=O)N[C@@H](CO)C(=O)N[C@@H](CC(C)C)C(=O)N[C@@H](CC(=O)O)C(=O)N[C@H](C(=O)N1CCC[C@H]1C(=O)N[C@H](C(=O)N[C@@H](CCCCN)C(=O)N[C@@H](CC(C)C)C(=O)N[C@@H](CCCCNC(=O)COCCOCCNC(=O)COCCOCCNC(=O)CC[C@H](NC(=O)CCCCCCCCCCCCCCCCC(=O)O)C(=O)O)C(=O)N[C@@H](CCC(N)=O)C(=O)N[C@H](C(=O)N[C@@H](CC(C)C)C(=O)N[C@@H](CC(C)C)C(=O)N[C@@H](CCCCN)C(=O)N[C@@H](CCC(N)=O)C(=O)N[C@@H](CCC(=O)O)C(=O)N[C@@H](CCCNC(=N)N)C(=O)N[C@@H](CCC(N)=O)C(=O)N[C@@H](CCCCN)C(=O)N[C@@H](CCCCN)C(=O)N[C@@H](CCC(N)=O)C(=O)N[C@@H](CCCNC(=N)N)C(=O)N[C@@H](CCC(=O)O)C(=O)N[C@@H](CCCCN)C(=O)N[C@@H](C)C(=O)N[C@@H](CCC(=O)O)C(=O)N[C@@H](CCCCN)C(=O)N[C@@H](CC(N)=O)C(=O)N[C@@H](CCCCN)C(=O)N[C@@H](CCC(N)=O)C(=O)N[C@H](C(=O)N[C@@H](CC(C)C)C(=O)N[C@@H](C)C(=O)N[C@@H](CCC(N)=O)C(=O)N[C@H](C(N)=O)C(C)C)[C@@H](C)CC)[C@@H](C)CC)[C@@H](C)CC)C(C)C)C(C)C
# B3: peptide of SEQ ID NO: 122 (peptide)
# peptide: IVLSLDVPIKLK([AEEA-AEEA-γGlu-C18 diacid])QILLKQERQKKQRQQAEKNKQILAQV-NH2
# modifications: N-terminus assumed
# SMILES: CC[C@H](C)[C@H](N)C(=O)N[C@H](C(=O)N[C@@H](CC(C)C)C(=O)N[C@@H](CO)C(=O)N[C@@H](CC(C)C)C(=O)N[C@@H](CC(=O)O)C(=O)N[C@H](C(=O)N1CCC[C@H]1C(=O)N[C@H](C(=O)N[C@@H](CCCCN)C(=O)N[C@@H](CC(C)C)C(=O)N[C@@H](CCCCNC(=O)COCCOCCNC(=O)COCCOCCNC(=O)CC[C@H](NC(=O)CCCCCCCCCCCCCCCCC(=O)O)C(=O)O)C(=O)N[C@@H](CCC(N)=O)C(=O)N[C@H](C(=O)N[C@@H](CC(C)C)C(=O)N[C@@H](CC(C)C)C(=O)N[C@@H](CCCCN)C(=O)N[C@@H](CCC(N)=O)C(=O)N[C@@H](CCC(=O)O)C(=O)N[C@@H](CCCNC(=N)N)C(=O)N[C@@H](CCC(N)=O)C(=O)N[C@@H](CCCCN)C(=O)N[C@@H](CCCCN)C(=O)N[C@@H](CCC(N)=O)C(=O)N[C@@H](CCCNC(=N)N)C(=O)N[C@@H](CCC(N)=O)C(=O)N[C@@H](CCC(N)=O)C(=O)N[C@@H](C)C(=O)N[C@@H](CCC(=O)O)C(=O)N[C@@H](CCCCN)C(=O)N[C@@H](CC(N)=O)C(=O)N[C@@H](CCCCN)C(=O)N[C@@H](CCC(N)=O)C(=O)N[C@H](C(=O)N[C@@H](CC(C)C)C(=O)N[C@@H](C)C(=O)N[C@@H](CCC(N)=O)C(=O)N[C@H](C(N)=O)C(C)C)[C@@H](C)CC)[C@@H](C)CC)[C@@H](C)CC)C(C)C)C(C)C
# B4: peptide of SEQ ID NO: 118 (peptide)
# peptide: IVLSLD[dV]PIKLK([AEEA-AEEA-γGlu-C18 diacid])QILLKQERQK[Aib]QRQKAEKNKQILAQV-NH2
# modifications: N-terminus assumed
# SMILES: CC[C@H](C)[C@H](N)C(=O)N[C@H](C(=O)N[C@@H](CC(C)C)C(=O)N[C@@H](CO)C(=O)N[C@@H](CC(C)C)C(=O)N[C@@H](CC(=O)O)C(=O)N[C@@H](C(=O)N1CCC[C@H]1C(=O)N[C@H](C(=O)N[C@@H](CCCCN)C(=O)N[C@@H](CC(C)C)C(=O)N[C@@H](CCCCNC(=O)COCCOCCNC(=O)COCCOCCNC(=O)CC[C@H](NC(=O)CCCCCCCCCCCCCCCCC(=O)O)C(=O)O)C(=O)N[C@@H](CCC(N)=O)C(=O)N[C@H](C(=O)N[C@@H](CC(C)C)C(=O)N[C@@H](CC(C)C)C(=O)N[C@@H](CCCCN)C(=O)N[C@@H](CCC(N)=O)C(=O)N[C@@H](CCC(=O)O)C(=O)N[C@@H](CCCNC(=N)N)C(=O)N[C@@H](CCC(N)=O)C(=O)N[C@@H](CCCCN)C(=O)NC(C)(C)C(=O)N[C@@H](CCC(N)=O)C(=O)N[C@@H](CCCNC(=N)N)C(=O)N[C@@H](CCC(N)=O)C(=O)N[C@@H](CCCCN)C(=O)N[C@@H](C)C(=O)N[C@@H](CCC(=O)O)C(=O)N[C@@H](CCCCN)C(=O)N[C@@H](CC(N)=O)C(=O)N[C@@H](CCCCN)C(=O)N[C@@H](CCC(N)=O)C(=O)N[C@H](C(=O)N[C@@H](CC(C)C)C(=O)N[C@@H](C)C(=O)N[C@@H](CCC(N)=O)C(=O)N[C@H](C(N)=O)C(C)C)[C@@H](C)CC)[C@@H](C)CC)[C@@H](C)CC)C(C)C)C(C)C
# B5: peptide of SEQ ID NO: 123 (peptide)
# peptide: IVLSLDVPIKLK([AEEA-AEEA-γGlu-C18 diacid])QILLEQARQK[Aib]QRAQAEKNKRILERV-NH2
# modifications: N-terminus assumed
# SMILES: CC[C@H](C)[C@H](N)C(=O)N[C@H](C(=O)N[C@@H](CC(C)C)C(=O)N[C@@H](CO)C(=O)N[C@@H](CC(C)C)C(=O)N[C@@H](CC(=O)O)C(=O)N[C@H](C(=O)N1CCC[C@H]1C(=O)N[C@H](C(=O)N[C@@H](CCCCN)C(=O)N[C@@H](CC(C)C)C(=O)N[C@@H](CCCCNC(=O)COCCOCCNC(=O)COCCOCCNC(=O)CC[C@H](NC(=O)CCCCCCCCCCCCCCCCC(=O)O)C(=O)O)C(=O)N[C@@H](CCC(N)=O)C(=O)N[C@H](C(=O)N[C@@H](CC(C)C)C(=O)N[C@@H](CC(C)C)C(=O)N[C@@H](CCC(=O)O)C(=O)N[C@@H](CCC(N)=O)C(=O)N[C@@H](C)C(=O)N[C@@H](CCCNC(=N)N)C(=O)N[C@@H](CCC(N)=O)C(=O)N[C@@H](CCCCN)C(=O)NC(C)(C)C(=O)N[C@@H](CCC(N)=O)C(=O)N[C@@H](CCCNC(=N)N)C(=O)N[C@@H](C)C(=O)N[C@@H](CCC(N)=O)C(=O)N[C@@H](C)C(=O)N[C@@H](CCC(=O)O)C(=O)N[C@@H](CCCCN)C(=O)N[C@@H](CC(N)=O)C(=O)N[C@@H](CCCCN)C(=O)N[C@@H](CCCNC(=N)N)C(=O)N[C@H](C(=O)N[C@@H](CC(C)C)C(=O)N[C@@H](CCC(=O)O)C(=O)N[C@@H](CCCNC(=N)N)C(=O)N[C@H](C(N)=O)C(C)C)[C@@H](C)CC)[C@@H](C)CC)[C@@H](C)CC)C(C)C)C(C)C
# B6: peptide of SEQ ID NO: 124 (peptide)
# peptide: IVLSLDVPIKLK([AEEA-AEEA-γGlu-C18 diacid])QILLKQARQK[Aib]QRAQAEKNKRILERV-NH2
# modifications: N-terminus assumed
# SMILES: CC[C@H](C)[C@H](N)C(=O)N[C@H](C(=O)N[C@@H](CC(C)C)C(=O)N[C@@H](CO)C(=O)N[C@@H](CC(C)C)C(=O)N[C@@H](CC(=O)O)C(=O)N[C@H](C(=O)N1CCC[C@H]1C(=O)N[C@H](C(=O)N[C@@H](CCCCN)C(=O)N[C@@H](CC(C)C)C(=O)N[C@@H](CCCCNC(=O)COCCOCCNC(=O)COCCOCCNC(=O)CC[C@H](NC(=O)CCCCCCCCCCCCCCCCC(=O)O)C(=O)O)C(=O)N[C@@H](CCC(N)=O)C(=O)N[C@H](C(=O)N[C@@H](CC(C)C)C(=O)N[C@@H](CC(C)C)C(=O)N[C@@H](CCCCN)C(=O)N[C@@H](CCC(N)=O)C(=O)N[C@@H](C)C(=O)N[C@@H](CCCNC(=N)N)C(=O)N[C@@H](CCC(N)=O)C(=O)N[C@@H](CCCCN)C(=O)NC(C)(C)C(=O)N[C@@H](CCC(N)=O)C(=O)N[C@@H](CCCNC(=N)N)C(=O)N[C@@H](C)C(=O)N[C@@H](CCC(N)=O)C(=O)N[C@@H](C)C(=O)N[C@@H](CCC(=O)O)C(=O)N[C@@H](CCCCN)C(=O)N[C@@H](CC(N)=O)C(=O)N[C@@H](CCCCN)C(=O)N[C@@H](CCCNC(=N)N)C(=O)N[C@H](C(=O)N[C@@H](CC(C)C)C(=O)N[C@@H](CCC(=O)O)C(=O)N[C@@H](CCCNC(=N)N)C(=O)N[C@H](C(N)=O)C(C)C)[C@@H](C)CC)[C@@H](C)CC)[C@@H](C)CC)C(C)C)C(C)C
# Molecular target: T1, CRF1R receptor (anti-target)
# Assay: cell-based or functional assay
"EC50 [nM] 0% HSA (cAMP, HTRF) [nM]",Emax (%) (100% = Sauvagine at 100 nM),Binder
> 100,0.4,B1
> 100,-1.1,B2
> 100,6.9,B3
> 100,1.5,B4
> 100,9,B5
> 100,-2.5,B6

# — patent publication US12679878B2, “CRF2 receptor agonists and their use in therapy” (SANOFI, priority 2020, dated 2026)
